We go through one substance from publication PMC3448830.

A word on the Km: it is the concentration of substrate that gives half-maximal velocity. As a reminder, the kcat is the number of substrate molecules converted per active site and unit of time at saturation. A word on the kcat/Km: it is the turnover number divided by the Michaelis constant.

What all share (details): other: substrate, Hanes-Woolf plots, pH 8.5, room temperature, 16 h
In data set [1] the test system is NCCCC(=O)O. In words: purified protein, by the assay type.
In data set [2] the test system is NCc1ccc(C(=O)O)o1. Put plainly: Substrate activity for GABA-AT. It counts as biochemical, pig.
Data set [3] relates to NCc1cocc1C(=O)O. Put plainly: Substrate activity for GABA-AT. It counts as biochemical, pig.
For data set [4], the system named is NCc1c[nH]c(C(=O)O)c1. In words: Substrate activity for GABA-AT. It counts as biochemical, pig.
Data set [5] relates to NCc1coc(C(=O)O)c1. In words: Substrate activity for GABA-AT. It counts as biochemical, pig.
For data set [6], the system named is NCc1csc(C(=O)O)c1. In words: Substrate activity for GABA-AT. It is filed as biochemical, pig.
Data set [7] has as its system NCc1ccc(C(=O)O)[nH]1. In words: Substrate activity for GABA-AT. It counts as biochemical, pig.
The test system of data set [8] is NCc1ccc(C(=O)O)s1. Put plainly: Substrate activity for GABA-AT. It counts as biochemical, pig.

On to GABA-AT (Sus scrofa), for which the Michaelis-Menten constant (Km) in data set [1] is 1300 ± 300 µM; in data set [2], 2100 ± 100 µM; in data set [3], 2800 ± 500 µM; in data set [4], 1400 ± 300 µM; in data set [5], 310 ± 70 µM; in data set [6], 1700 ± 300 µM. Besides, the Michaelis constant (Km) came out at 9500 ± 300 µM in data set [7] and 6300 ± 200 µM in data set [8]. Also, the kcat stood at 0.817 s⁻¹ in data set [1]; 0.000567 ± 6.67e-05 s⁻¹ in data set [2]; 1.38e-05 ± 8.33e-07 s⁻¹ in data set [3]; 5.67e-05 ± 5e-06 s⁻¹ in data set [4]; 3.83e-05 ± 1.67e-06 s⁻¹ in data set [5]; 2.5e-05 ± 3.33e-06 s⁻¹ in data set [7]. Also, in data set [8], the turnover number (kcat) was 0.000167 ± 5e-05 s⁻¹. For the same substance, the kcat/Km in data set [1] came to 643 M⁻¹ s⁻¹; in data set [2], 0.267 M⁻¹ s⁻¹; in data set [3], 0.005 M⁻¹ s⁻¹; in data set [4], 0.04 M⁻¹ s⁻¹; in data set [5], 0.123 M⁻¹ s⁻¹; in data set [7], 0.00267 M⁻¹ s⁻¹. Moreover, the kcat/Km in data set [8] worked out at 0.0267 M⁻¹ s⁻¹.
